Test results published in patent US20220135694A1, “NOVEL CD40-BINDING ANTIBODIES” (LAVA THERAPEUTICS B.V., priority 2019, published 2022).

Legend:
[1] = molecular target: T1, CD40 (Homo sapiens, UniProt P25942); assay: CD40 agonistic activity in primary CLL cells, 48 h, flow cytometry; format: cell-based; conditions: for CD40 stimulation (viability, CD86 and CD95 expression): various concentrations, FIG. 3A-C
T1 construct: Primary chronic lymphocytic leukemia (CLL) cells express CD40 on the cell surface; endogenous in cells; host or cells: primary CLL PBMCs from untreated CLL patients
T1 sequence (P25942 21-277): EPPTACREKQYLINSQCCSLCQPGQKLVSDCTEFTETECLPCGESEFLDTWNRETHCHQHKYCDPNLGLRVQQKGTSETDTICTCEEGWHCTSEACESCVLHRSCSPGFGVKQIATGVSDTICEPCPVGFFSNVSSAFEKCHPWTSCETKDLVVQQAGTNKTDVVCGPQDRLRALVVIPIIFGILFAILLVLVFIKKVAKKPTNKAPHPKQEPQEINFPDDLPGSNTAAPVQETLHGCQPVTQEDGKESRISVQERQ
Experimental: PBMCs (≥90% CD5^+CD19^+) from untreated CLL patients were obtained and cryopreserved as described in Example 3. Thawed cells were kept in complete IMDM.
To assess whether binding of the VHH to CD40 has agonistic effects, primary CLL PBMCs were cultured for 48 hours in the presence of VHH, medium control or recombinant multimeric CD40 ligand (rmCD40L; 100 ng/mL, Bioconnect).
After 48 hours, cells were harvested, washed and incubated with AF700-conjugated anti-CD19 (557921), FITC-conjugated anti-CD80 (6109965), APC-conjugated anti-CD86 (555660, all BD Biosciences), PE-conjugated anti-CD5 (12-0059-42, Thermo Fisher Scientific) and PECy7-conjugated anti-CD95 (305621, Biolegend, San Diego, Calif., USA) antibodies for 20 minutes at 4° C. Alternatively, after 48 hours, cells were harvested and viability was measured using Mitotracker Orange (25-minute incubation at 37° C.) and To-pro-3 (10-minute incubation at room temperature; both Thermo Fisher Scientific). Samples were measured on a FACSCanto cytometer (BD Biosciences) and analyzed with Flowjo MacV10.
To assess whether binding of the VHH has agonistic effects, primary CLL PBMCs were cultured with the indicated concentrations of V19S76K-5C8, medium control or rmCD40L for 48 hours and analyzed by flow cytometry as described in Example 4.

[2] = molecular target: T2, human CD40 (human, UniProt P25942 21-277); assay: cell-based or functional assay
T2 sequence (P25942 21-277 limits assumed): as the sequence (P25942 21-277) above

[3] = molecular target: T2, human CD40; assay: flow cytometry, CD40-transfected HEK293T cells, VHH 1 µM, Myc-tag detection; controls: cells without VHH and WT HEK293T with and without VHH
Experimental: FIG. 1: Anti-CD40 VHHs bind to CD40-expressing cells. (A) CD40 expression on WT (filled histogram) and CD40-transfected (unfilled histogram) HEK293T cells. (B) CD40-negative WT or CD40-transfected HEK293T cells were incubated with V12t (1 μM), V15t (1 μM), V19t (1 μM) or medium control and the Myc-tag was subsequently detected by flow cytometry. Representative histograms obtained in 3 independent experiments are shown.

[4] = molecular target: T3, human CD40 (CD40-transfected HEK293T cells) (Homo sapiens, UniProt P25942); assay: Monovalent VHH binding to CD40-transfected HEK293T cells, Myc-tag flow cytometry; conditions: for average geometric mean fluorescence intensity (Myc-tag): CD40-transfected HEK293T cells, 2 experiments
T3 construct: expressed in transfected cells; host or cells: HEK293T
T3 sequence (P25942 21-277): as above
Experimental: The embryonic kidney cell line HEK293T, either wildtype (WT) or transfected with human CD40, was grown in Dulbecco's Modified Eagle Medium (41965-039, Thermo Fisher Scientific, Waltham, Mass., USA), supplemented with 10% fetal calf serum (F7524, Merck, Kenilworth, N.J., USA), 200 mM L-glutamine (25030-123, Thermo Fisher Scientific), 0.05 mM β-mercapto-ethanol (M6250, Merck) and 10,000 U/mL penicillin/streptomycin (15140-122, Thermo Fisher Scientific), hereafter referred to as complete DMEM.
CD40 expression on CD40-transfected cells was confirmed by incubation with a PE-conjugated anti-CD40 antibody (IM1936U, Beckman Coulter, Brea, Calif., USA) for 20 minutes at 4° C. […] Bound VHH was detected by sequential incubation with mouse-anti-Myc tag (05-274, Merck) and AF488-conjugated goat-anti-mouse (A-11001, Thermo Fisher Scientific) antibodies for 20 minutes at 4° C.
Samples were measured on a FACSCanto cytometer (BD Biosciences, Franklin Lakes, N.J., USA) and analyzed with Flowjo MacV10.

[5] = molecular target: T1, CD40; assay: CD40 antagonistic activity in primary CLL cells: pre-incubation, then rmCD40L for 48 h; format: cell-based; conditions: 30 min pre-incubation, then rmCD40L 100 ng/mL for 48 hours; FIG. 4A-C
Experimental: PBMCs (≥90% CD5^+CD19^+) from untreated CLL patients were obtained and cryopreserved as described in […]. Thawed cells were kept in complete IMDM.
To test whether the VHH antagonizes CD40 stimulation, primary CLL PBMCs were pre-incubated with VHH or medium control for 30 minutes at 37° C. and subsequently cultured for 48 hours in the presence of rmCD40L (100 ng/mL).
After 48 hours, cells were analyzed by flow cytometry as described in Example 4.
To assess whether binding of the VHH has antagonistic effects, primary CLL PBMCs were pre-incubated with V19S76K-5C8 or medium control and then cultured with rmCD40L for 48 hours and analyzed by flow cytometry as described in Example 5.

[6] = test system: CD40+ CII target cells; assay: Cytotoxicity assay: CII target cells with Vγ9Vδ2-T cells; format: cell-based, human; conditions: overnight with Vγ9Vδ2-T cells, 1:1 ratio; FIG. 11A
Experimental: CD40^+ CII cells and Vγ9Vδ2-T cells were grown as described in Example 7.
CII target cells were labeled with carboxyfluorescein succinimidyl ester (CFSE; C1157, Thermo Fisher Scientific) and incubated with VHH or medium control for 30 minutes at 37° C. Target cells were then cocultured overnight with Vγ9Vδ2-T cell lines in a 1:1 ratio.
Viability was measured as described in Example 4.

rmCD40L: recombinant multimeric CD40 ligand, 100 ng/mL, Bioconnect [reference compound]
CD40 stimulation (expression of CD80, CD86 and CD95) ([1]; FIG. 7A-C): effectively induced CD40 stimulation
CD40 stimulation (viability, CD86 and CD95 expression) [1]: effectively induced CD40 stimulation

B1: V15-5C8t (bispecific antibody)
chain: EVQLQESGGGLVQAGGSLRLSCVTSGSAFSSDTMGWFRQAPGKQRELVASISSRGVREYADSVKGRFTISRDNAKNTVYLQMNSLQPEDTAVYYCNRGALGLPGYRPYNNWGQGTQVTVSSGGGGSEVQLVESGGGLVQAGGSLRLSCAASGRPFSNYAMGWFRQAPGKEREFVAAISWSGGSTSYADSVKGRFTISRDNAKNTVYLQMNSPKPEDTAIYYCAAQFSGADYGFGRLGIRGYEYDYWGQGTQVTVSSGLEGHSDHMEQKLISEEDLNRISDHHHHHH
lysis of primary CLL cells by Vγ9Vδ2-T cells (specific cell death) at 100 nM [2]: 70.5%

B2: V15t (VHH)
VHH: EVQLQESGGGLVQAGGSLRLSCVTSGSAFSSDTMGWFRQAPGKQRELVASISSRGVREYADSVKGRFTISRDNAKNTVYLQMNSLQPEDTAVYYCNRGALGLPGYRPYNNWGQGTQVTVSS
notes: Llama VHH with C-terminal Myc- and His6-tag; also called monovalent anti-CD40 VHH V15t
binding result [3]: binds

B3: V19-5C8t (bispecific antibody)
chain: QVQLQESGGGLVQAGGSLRLSCAASGRTFGRSAMGWFRQAPGKEREFVAAIGTRGGSTKYADSVKGRFTISTDNASNTVYLQMDSLKPEDTAVYRCAVRGPGYPSAAIFQDEYHYWGQGTQVTVSSGGGGSEVQLVESGGGLVQAGGSLRLSCAASGRPFSNYAMGWFRQAPGKEREFVAAISWSGGSTSYADSVKGRFTISRDNAKNTVYLQMNSPKPEDTAIYYCAAQFSGADYGFGRLGIRGYEYDYWGQGTQVTVSSGLEGHSDHMEQKLISEEDLNRISDHHHHHH
lysis of primary CLL cells by Vγ9Vδ2-T cells (specific cell death) at 100 nM [2]: 68.5%

B4: V12t: monovalent anti-CD40 VHH V12 with C-terminal Myc- and His6-tag, SEQ ID NO:36 (protein)
VHH: QVQLQESGGGLVQAGGSLRLSCAASGLVFKRYSMNWYRQPPGQQRGLVASISDSGVSTNYADSVKGRFTISRDNAKNIGYLQMNSLKPEDTAVYYCNMHTFWGQGTQVTVSSGLEGHSDHMEQKLISEEDLNRISDHHHHHH
modifications: antibody sequence
binding to CD40-expressing cells ([4]; detection of the Myc tag, FIG. 1B): bound to the CD40-expressing cells
CD40 stimulation (viability, CD86 and CD95 expression) [1]: did not induce any of these effects
prevention of CD40L-induced CD40 stimulation (viability, CD86 and CD95 expression) [5]: did not block CD40L-induced effects

B5: V12t (VHH)
VHH: QVQLQESGGGLVQAGGSLRLSCAASGLVFKRYSMNWYRQPPGQQRGLVASISDSGVSTNYADSVKGRFTISRDNAKNIGYLQMNSLKPEDTAVYYCNMHTFWGQGTQVTVSS
notes: Llama VHH with C-terminal Myc- and His6-tag; also called monovalent anti-CD40 VHH V12t
binding result [3]: binds

B6: V19S76Kt: V19t VHH in which serine at position 76 (putative glycosylation site) was altered into lysine, SEQ ID NO:22 (protein)
VHH: QVQLQESGGGLVQAGGSLRLSCAASGRTFGRSAMGWFRQAPGKEREFVAAIGTRGGSTKYADSVKGRFTISTDNAKNTVYLQMDSLKPEDTAVYRCAVRGPGYPSAAIFQDEYHYWGQGTQVTVSSGLEGHSDHMEQKLISEEDLNRISDHHHHHH
modifications: antibody sequence
binding affinity to CD40 after S76K mutation, relative to V19t [4]: retained
average geometric mean fluorescence intensity (Myc-tag) ([4]; VHH concentration 1 pM): 4790
average geometric mean fluorescence intensity (Myc-tag) ([4]; VHH concentration 10 pM): 4949
average geometric mean fluorescence intensity (Myc-tag) ([4]; VHH concentration 100 pM): 5502
average geometric mean fluorescence intensity (Myc-tag) ([4]; VHH concentration 1 nM): 7906
average geometric mean fluorescence intensity (Myc-tag) ([4]; VHH concentration 10 nM): 9283
average geometric mean fluorescence intensity (Myc-tag) ([4]; VHH concentration 100 nM): 17062

B7: V12-5C8t (bispecific antibody)
chain: QVQLQESGGGLVQAGGSLRLSCAASGLVFKRYSMNWYRQPPGQQRGLVASISDSGVSTNYADSVKGRFTISRDNAKNIGYLQMNSLKPEDTAVYYCNMHTFWGQGTQVTVSSGGGGSEVQLVESGGGLVQAGGSLRLSCAASGRPFSNYAMGWFRQAPGKEREFVAAISWSGGSTSYADSVKGRFTISRDNAKNTVYLQMNSPKPEDTAIYYCAAQFSGADYGFGRLGIRGYEYDYWGQGTQVTVSSGLEGHSDHMEQKLISEEDLNRISDHHHHHH
lysis of primary CLL cells by Vγ9Vδ2-T cells (specific cell death) at 100 nM [2]: 45.3%

B8: V12-5C8t: bispecific VHH: anti-CD40 V12 joined to anti-Vδ2-TCR 5C8 by Gly4Ser linker, Myc- and His6-tag, SEQ ID NO:37 (protein)
VHH: QVQLQESGGGLVQAGGSLRLSCAASGLVFKRYSMNWYRQPPGQQRGLVASISDSGVSTNYADSVKGRFTISRDNAKNIGYLQMNSLKPEDTAVYYCNMHTFWGQGTQVTVSSGGGGSEVQLVESGGGLVQAGGSLRLSCAASGRPFSNYAMGWFRQAPGKEREFVAAISWSGGSTSYADSVKGRFTISRDNAKNTVYLQMNSPKPEDTAIYYCAAQFSGADYGFGRLGIRGYEYDYWGQGTQVTVSSGLEGHSDHMEQKLISEEDLNRISDHHHHHH
modifications: antibody sequence
lysis of CII target cells [6]: less potent
